B1: Fba peptide (synthetic, from fructose-bisphosphate aldolase) (peptide)
peptide: YGKDVKDLFDYAQE
B5: HuMAb 1.11D (anti-Fba) (antibody, V domains shown)
VH: EVQLVQSGGGLVQPGGSLRLSCSASGFTFRTYAMSWVRQAPGKGLQWVSVISRSGDTTYHTDSVKGRFTISRDNSRNALYLQLDSLRAEDTALYYCAKTGNMAVGDRRTNYSYYYMDVWGKGTTVTVSS
VL: DIVMTQSPSTLSASVGDRVTITCRASQSIKYWLAWYQQKPGKAPKLLIYKASNLESGVPSRFSGSGSGTEFTLTISSLRPDDFATYYCQQYNSYPLTFGGGTVEIK
B6: MET6 peptide (synthetic, from methyltetrahydropteroyltriglutamate homocysteine methyltransferase) (peptide)
peptide: PRIGGQRELKKITE
notes: also called MEM
B7: HuMAb 1.10C (anti-MET6) (antibody, V domains shown)
VH: EVQLVESGGGLVKPGGSLRLSCKASGFNFTNSWMSWVRQAPGKGLEWLGRIKSESDGGATRYAAPVTGRFSISRDDSRDMLFLQMNSLTTDDTAMYYCTTNKVTTNYWGQGTLVTVSS
VL: DIVMTQSPVTLAVSLGERATINCKSSQSLLYSSDNENYLTWYQQKPGQPPKLLIYWASVRESGIPDRFIGSGSVTDFTLTINNVQAEDVAVYYCQQFRYTPLTFGQGTTLEIK
notes: also called 1.100

Assays:
HuMAb 1.11D (anti-Fba) = molecular target: B5; test: competition ELISA: 1.11D mixed with free Fba peptide and added to Fba peptide-coated wells; the competitor is the coated Fba peptide
MET6-Biotin peptide [1] = molecular target: T1, MET6-Biotin peptide (Candida albicans, not fully specified; C-terminal K-Biotin (PRIGGQRELKKITEPGGSGGSGK-Biotin)); test: BLI (BLITz), btn-Met6 peptide on streptavidin tip, IgG in solution
T1 construct: also called btn-Met6 peptide; MFT6-Biotin
T1 peptide: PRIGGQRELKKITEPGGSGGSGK
Experimental: (§1) Binding experiments were performed using a FortèBio BLITz Bi-layer interferometer at 25° C. […] Loaded sensors were dipped into serial dilutions of the cognate IgG.

Fba-Biotin peptide [2] = molecular target: T2, Fba-Biotin peptide (Candida albicans, not fully specified; C-terminal K-Biotin (YGKDVKDLFDYAQEGGSGGSGK-Biotin)); test: BLI (BLITz), btn-Fba peptide on streptavidin tip, IgG in solution
T2 construct: also called btn-Fba peptide
T2 peptide: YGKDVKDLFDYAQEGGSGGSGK
Experimental: as §1

Fba-Biotin peptide [3] = molecular target: T2, Fba-Biotin peptide; test: bio-layer interferometry (Octet), Fba-btn at 10 ng/ml loaded on streptavidin sensors, kinetic 1:1 fit
Fba-Biotin peptide [4] = molecular target: T2, Fba-Biotin peptide; test: BLI (Octet HTX), kinetic 1:1 fit, biotinylated peptide on streptavidin sensor, IgG in solution; kinetic measurement (FIG. 4)
Fba-Biotin peptide [5] = molecular target: T2, Fba-Biotin peptide; test: bio-layer interferometry (Octet), Fba-btn at 10 ng/ml loaded on streptavidin sensors, kinetic 1:1 fit; column head kdis(1/s)
Fba-Biotin peptide [6] = molecular target: T2, Fba-Biotin peptide; test: bio-layer interferometry (Octet), steady state analysis, Fba-btn on streptavidin sensors
Fba-Biotin peptide [7] = molecular target: T2, Fba-Biotin peptide; test: BLI (Octet HTX), steady-state analysis, biotinylated peptide on streptavidin sensor, IgG in solution; steady-state measurement (FIG. 5)
HuMAb 1.10C (anti-MET6) = molecular target: B7; test: competition ELISA: 1.10C mixed with free MET6 peptide and added to MET6 peptide-coated wells; the competitor is the coated MET6 peptide
[8] = molecular target: T3, full-length His-tagged recombinant Fba protein from C. albicans (Candida albicans, UniProt Q9URB4 2-359); test: bio-layer interferometry (BLITz), His-Fba (C. albicans) loaded on an anti-penta-His sensor, antibody in the association step
T3 construct: mature; also called His-Fba; whole length recombinant Fba (C. albicans); not shown: six-histidine (6-His) amino terminal tag from vector pRSET A
T3 sequence (looked up): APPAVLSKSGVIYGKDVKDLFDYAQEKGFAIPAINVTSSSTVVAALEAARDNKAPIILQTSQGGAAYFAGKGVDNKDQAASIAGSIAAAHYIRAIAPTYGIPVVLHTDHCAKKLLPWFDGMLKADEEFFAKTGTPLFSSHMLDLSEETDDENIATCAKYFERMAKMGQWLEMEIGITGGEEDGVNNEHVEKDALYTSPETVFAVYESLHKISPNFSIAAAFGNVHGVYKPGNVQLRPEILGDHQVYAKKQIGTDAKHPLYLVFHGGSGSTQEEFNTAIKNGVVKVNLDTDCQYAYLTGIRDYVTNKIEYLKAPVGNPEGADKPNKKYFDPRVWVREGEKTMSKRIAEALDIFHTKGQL

MET6-Biotin peptide [9] = molecular target: T1, MET6-Biotin peptide; test: BLI (BLITz), btn-Met6 peptide on streptavidin tip, IgG in solution; BLITz run of Dec. 3, 2018
MET6-Biotin peptide [10] = molecular target: T1, MET6-Biotin peptide; test: bio-layer interferometry (Octet), met6-btn loaded on streptavidin sensors, kinetic 1:1 fit; column head kdis(1/s)
[11] = molecular target: B6; test: ELISA on peptide-coated wells, HRP goat anti-human IgG, absorbance at 450 nm
[12] = molecular target: B1; test: as above
MET6-Biotin peptide [13] = molecular target: T1, MET6-Biotin peptide; test: BLI (Octet HTX), kinetic 1:1 fit, biotinylated peptide on streptavidin sensor, IgG in solution; kinetic measurement (FIG. 4)
MET6-Biotin peptide [14] = molecular target: T1, MET6-Biotin peptide; test: bio-layer interferometry (Octet), steady state analysis, met6-btn on streptavidin sensors
MET6-Biotin peptide [15] = molecular target: T1, MET6-Biotin peptide; test: bio-layer interferometry (Octet), met6-btn loaded on streptavidin sensors, kinetic 1:1 fit
MET6-Biotin peptide [16] = molecular target: T1, MET6-Biotin peptide; test: BLI (Octet HTX), steady-state analysis, biotinylated peptide on streptavidin sensor, IgG in solution; steady-state measurement (FIG. 5)
[17] = molecular target: T4, full-length His-tagged recombinant Met6 protein from C. albicans (Candida albicans, UniProt P82610 2-767); test: bio-layer interferometry (BLITz), His-Met6 (C. albicans) from bacterial supernatant loaded on an anti-penta-His sensor, antibody in the association step
T4 construct: mature; also called His-Met6; whole length recombinant MET6; not shown: six-histidine (6-His) amino terminal tag from vector pRSET A
T4 sequence (looked up): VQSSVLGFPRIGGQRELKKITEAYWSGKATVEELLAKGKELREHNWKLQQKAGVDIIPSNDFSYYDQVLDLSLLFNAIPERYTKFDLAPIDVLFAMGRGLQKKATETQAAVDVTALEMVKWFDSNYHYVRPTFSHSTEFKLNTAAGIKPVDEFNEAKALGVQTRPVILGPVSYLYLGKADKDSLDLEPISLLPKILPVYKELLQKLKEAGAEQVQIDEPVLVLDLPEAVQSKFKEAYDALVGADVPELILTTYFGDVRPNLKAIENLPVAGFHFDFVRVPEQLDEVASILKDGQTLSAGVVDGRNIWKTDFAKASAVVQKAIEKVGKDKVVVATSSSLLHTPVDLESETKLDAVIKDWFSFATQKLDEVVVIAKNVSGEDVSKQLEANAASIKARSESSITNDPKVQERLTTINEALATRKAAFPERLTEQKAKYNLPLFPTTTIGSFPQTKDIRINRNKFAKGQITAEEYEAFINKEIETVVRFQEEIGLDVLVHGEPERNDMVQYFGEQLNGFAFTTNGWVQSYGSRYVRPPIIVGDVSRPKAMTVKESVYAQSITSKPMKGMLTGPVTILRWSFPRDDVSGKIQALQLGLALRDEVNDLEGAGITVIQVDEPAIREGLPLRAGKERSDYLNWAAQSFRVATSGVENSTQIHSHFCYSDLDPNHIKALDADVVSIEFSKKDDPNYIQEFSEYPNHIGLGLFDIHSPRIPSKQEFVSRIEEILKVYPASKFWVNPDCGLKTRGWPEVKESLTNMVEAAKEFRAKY

In the case of B1, the “IC50 (read off the curve)” value (HuMAb 1.11D (anti-Fba)) is reported as ~4 µg/mL.

B2: HuMAb 6.6K (anti-Met6) (antibody, V domains shown)
VH: QVQLVESGGGVVQPGRSLRLSCAASGFNFISYGMHWVRQAPGKGLEWVALISYDGSNKYYADSVKGRFTISRDNSKNTLYLQMNSLRAEDTAVYYCATEAYVETAMVPQYWGQGTLVTVSS
VL: SYELTQPPSVSVSPGQTARITCSGDALPKEYAYWYQQKSGQAPVVVIYEDSKRPSGIPERFSGSSSGTMATLTISGAQVEDEADYHCYSTDSSGNPVFGGGTKLTVL
In the case of B2, the Kd (MET6-Biotin peptide [1]) is reported as 160 nM, the koff (MET6-Biotin peptide [1]) is reported as 0.012 s⁻¹ and the kon (MET6-Biotin peptide [1]) is reported as 75000 M⁻¹ s⁻¹.

B3: HuMAb 1.B10 (anti-Met6) (antibody, V domains shown)
VH: EVQLVQSGGGLVKPGGSLRLSCAASGFIFSNAWMNWVRQAPGKGLEWVGRIKRESDSGTTDYGAAVKGRFTISRDDSKYTLYLQMNSLKTDDTAVYYCTTGWADYWGQGTLVTVSS
VL: LIQPPSVSVSPGQTARITCSGDALPNKYAYWYQQKPGQAPSVVMFRDNERPSGIPERFSGSSSGTTVTLTISGVQAEDESDFYCQSTDSNGAWVFGGGTKLTVL
For B3, the Kd (MET6-Biotin peptide [1]) was 31 nM, the koff (MET6-Biotin peptide [1]) was 0.0064 s⁻¹ and the kon (MET6-Biotin peptide [1]) was 210000 M⁻¹ s⁻¹.

B4: HuMAb 6.11C (anti-Fba) (antibody, V domains shown)
VH: QVQLVQSGAEVKKPGASVQVSCRTSGYTFINYFMHWVRQAPGQGLEWMGIINPNGGKTRYAQKFQGRLTVTRDTSTNTVYVELSNLRYEDTGLYFCARDPEGEVGFDYWGQGTQVTVSS
VL: SHELTQPPSVSVSPGQTARITCSGDALSKQYAYWYQQKPGQAPVVVIYKDNERPSGIPERFSGSSSGTTVTLTITGVQAEDEADYYCQSTDTSRAYYVFGTGTKVTVL
Binder B4 has a Kd (Fba-Biotin peptide [2]) of 120 nM, a koff (Fba-Biotin peptide [2]) of 0.06 s⁻¹ and a kon (Fba-Biotin peptide [2]) of 490000 M⁻¹ s⁻¹.

In the case of B5, the Kd (Fba-Biotin peptide [2]) is reported as 19.8 nM, the koff (Fba-Biotin peptide [2]) is reported as 0.00073 s⁻¹ and the kon (Fba-Biotin peptide [2]) is reported as 38000 M⁻¹ s⁻¹. For the same binder, the Kd (Fba-Biotin peptide [3]) was 58.5 nM, the kon (Fba-Biotin peptide [3]) was 111000 M⁻¹ s⁻¹ and the Kd (Fba-Biotin peptide [4]) was ~58 nM. It also gave a koff (Fba-Biotin peptide [5]) of 0.00646 s⁻¹, a Kd (Fba-Biotin peptide [6]) of 77 nM and a Kd (Fba-Biotin peptide [7]) of ~77 nM.

In the case of B6, the “IC50 (read off the curve)” value (HuMAb 1.10C (anti-MET6)) is reported as ~2 µg/mL.

In the case of B7, the binding result [8] is reported as “no binding”, the Kd (MET6-Biotin peptide [9]) is reported as 180 nM and the koff (MET6-Biotin peptide [1]) is reported as 0.0055 s⁻¹. The kon (MET6-Biotin peptide [1]) was 31000 M⁻¹ s⁻¹, the koff (MET6-Biotin peptide [10]) was 0.0124 s⁻¹ and the binding result [11] was “binds”. For the same binder, the binding result [12] was “no binding”, the Kd (MET6-Biotin peptide [13]) was ~180 nM and the Kd (MET6-Biotin peptide [14]) was 310 nM. The Kd (MET6-Biotin peptide [15]) was 179 nM, the kon (MET6-Biotin peptide [15]) was 69500 M⁻¹ s⁻¹ and the Kd (MET6-Biotin peptide [16]) was ~310 nM. B7: binds [17].

Reference: patent US20220280618A1 (ADMINISTRATORS OF THE TULANE EDUCATIONAL FUND, published 2022)
